From PMC8677862, “Substrate binding modes of purine and pyrimidine nucleotides to human ecto-5′-nucleotidase (CD73) and inhibition by their bisphosphonic acid derivatives” (Purinergic Signalling, 2021) come the findings set out here.

Substrate in this data set: Nc1ncnc2c1ncn2[C@@H]1O[C@H](COP(=O)(O)O)[C@@H](O)[C@H]1O
The experiment in a line: purified protein, by the assay type. Particulars: other: AMP 5-200 μM, 1.25 ng CD73; pH 7.5; 25.0 °C. The class given is biochemical, human. On the procedure:
In this study, enzyme activity and inhibition data was characterised using a modified malachite green assay. Each assay consisted of reaction buffer A (50 mM Tris–HCl pH 7.5, 100 mM NaCl, 1 mM MgCl2) to which the appropriate substrate and/or inhibitors (see Table S1) were added. Dissolved compounds were immediately used for the inhibition assays. The reactions were generally initiated by the addition of protein. The protein concentrations, substrates and inhibitors used for the various experiments are detailed below. In all experiments, reactions were monitored over a 10-min period during which samples were taken at regular intervals. At each desired time point, a malachite green/molybdate (1:1) solution was added to the sample, which simultaneously terminated the assay and also allowed the detection of the produced phosphate ions. These reaction mixtures were incubated at 25 °C for 25 min, followed by measurement of the absorbance at 620 nm. […]
The specific activity (μmol Pi/min/mg protein) was calculated from the initial reaction rates and was used to determine when the protein refolding process had reached completion. […] Kinetic values were determined by fitting the Michaelis–Menten equation to the initial reaction rates using GraphPad Prism (GraphPad Software, La Jolla, CA, USA). […]

B1: human CD73 (Homo sapiens; K145S/K147S/K478S/N311D/N333D/N403D/N53D/T376A) (protein)
chain: WELTILHTNDVHSRLEQTSEDSSKCVDASRCMGGVARLFTKVQQIRRAEPNVLLLDAGDQYQGTIWFTVYKGAEVAHFMNALRYDAMALGNHEFDNGVEGLIEPLLKEAKFPILSANISASGPLASQISGLYLPYKVLPVGDEVVGIVGYTSKETPFLSNPGTNLVFEDEITALQPEVDKLKTLNVNKIIALGHSGFEMDKLIAQKVRGVDVVVGGHSNTFLYTGNPPSKEVPAGKYPFIVTSDDGRKVPVVQAYAFGKYLGYLKIEFDERGNVISSHGNPILLDSSIPEDPSIKADINKWRIKLDDYSTQELGKTIVYLDGSSQSCRFRECNMGNLICDAMINNNLRHADEMFWNHVSMCILNGGGIRSPIDERNDGTITWENLAAVLPFGGTFDLVQLKGSTLKKAFEHSVHRYGQSTGEFLQVGGIHVVYDLSRKPGDRVVKLDVLCTSCRVPSYDPLKMDEVYKVILPNFLANGGDGFQMIKDELLRHDSGDQDINVVSTYISKMKVIYPAVEGRIKFS
notes: His6 (C); made in house
In the case of B1, the Michaelis-Menten constant (Km) (usually the substrate concentration at which the rate is half of its maximum) is 10.5 µM and the Vmax was found to be 301.2 U/mg.
